For one molecule, Kd and koff results are on record in article PMC5934441 (2018).

Assay [1] has as its target T1, recombinant ECTV CrmD (cytokine response modifier D), C-terminally tagged with V5 and 6xHis (ectromelia virus (ECTV)). Briefly: SPR.
In assay [2] the target is T1, recombinant ECTV CrmD (cytokine …). The assay can be described thus: SPR. This is another data set of the same source. In general terms: Surface plasmon resonance follows binding to a sensor surface in real time, without labels.

B1: mouse Ccl27 (ligand)
chain: LPLPSSTSCCTQLYRQPLPSRLLRRIVHMELQEADGDCHLQAVVLHLARRSVCVHPQNRSLARWLERQGKRLQGTVPSLNLVLQKKMYSHPQQQN
The Kd is the free concentration of one partner at which half of the binding sites on the other are occupied at equilibrium, for simple one-to-one binding. For orientation: koff means the rate constant with which the complex falls apart. Consider B1, for which the Kd in assay [1] came out at 5.41 nM. In addition, in assay [2], the koff was 0.00372 s⁻¹.
